Data reported in article PMC4486081 (Oncogene, 2015).

Molecular target: Recombinant full length FAK (focal adhesion kinase), GST-tagged, phospho-Y397 (UniProt Q05397 1-1052, phosphotyrosine at 397)
Experiment: co-IP

Sequence of Recombinant full length FAK (focal adhesion kinase), GST-tagged, phospho-Y397 (Q05397 whole entry): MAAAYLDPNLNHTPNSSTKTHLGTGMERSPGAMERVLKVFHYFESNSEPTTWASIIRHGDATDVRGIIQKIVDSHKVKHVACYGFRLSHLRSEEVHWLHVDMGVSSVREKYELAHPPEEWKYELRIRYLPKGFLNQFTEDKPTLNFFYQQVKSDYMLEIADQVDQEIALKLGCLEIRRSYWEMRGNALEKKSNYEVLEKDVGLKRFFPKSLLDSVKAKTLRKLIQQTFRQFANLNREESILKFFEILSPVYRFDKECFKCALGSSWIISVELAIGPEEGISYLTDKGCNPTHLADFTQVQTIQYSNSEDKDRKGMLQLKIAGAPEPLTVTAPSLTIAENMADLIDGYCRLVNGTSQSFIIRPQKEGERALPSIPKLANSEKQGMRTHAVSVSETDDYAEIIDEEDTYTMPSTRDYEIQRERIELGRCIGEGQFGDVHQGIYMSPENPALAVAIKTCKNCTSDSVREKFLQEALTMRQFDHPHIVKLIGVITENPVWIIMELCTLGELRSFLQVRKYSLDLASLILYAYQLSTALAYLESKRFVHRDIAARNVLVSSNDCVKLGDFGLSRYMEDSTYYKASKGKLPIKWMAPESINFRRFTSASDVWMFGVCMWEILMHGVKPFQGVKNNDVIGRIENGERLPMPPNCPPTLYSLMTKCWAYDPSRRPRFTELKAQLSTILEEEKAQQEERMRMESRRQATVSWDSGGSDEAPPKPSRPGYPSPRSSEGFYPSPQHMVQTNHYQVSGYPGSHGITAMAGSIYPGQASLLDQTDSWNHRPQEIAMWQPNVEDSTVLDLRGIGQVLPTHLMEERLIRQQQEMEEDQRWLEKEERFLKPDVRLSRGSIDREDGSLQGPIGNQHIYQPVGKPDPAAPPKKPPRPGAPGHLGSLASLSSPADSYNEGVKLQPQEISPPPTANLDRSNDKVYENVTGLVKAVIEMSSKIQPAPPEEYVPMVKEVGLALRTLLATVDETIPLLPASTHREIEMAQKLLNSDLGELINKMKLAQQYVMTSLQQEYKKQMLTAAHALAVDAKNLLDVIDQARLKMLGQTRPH

binding result: binds
B1: Recombinant active PKM2 (pyruvate kinase M2), 1-531 aa with N-terminal His-tag (enzyme)
chain: not shown
